Experimental data published in publication PMC3093317 (Molecular Biology of the Cell, 2011).

What was measured:
[1] = target: HA-tagged YadA-MA expressed in E. coli (Yersinia enterocolitica) (UniProt P0C2W0); assay: SDS-PAGE of the SDS-stable oligomer with monomerization by boiling in urea
[2] = target: the molecule itself; assay: as above

Row | Molecule | stoichiometry N [1] | stoichiometry N [2]
1 | HA-tagged YadA-MA expressed in E. coli (from UniProt P0C2W0 335-422) (domain or fragment) | 3 | –
2 | HA-tagged YadA-MA-S417G, expressed in yeast (domain or fragment) FHQLDNRLDKLDTRVDKGLASSAALNSLFQPYGVGKVNFTAGVGGYRSSQALAIGSGYRVNESVALKAGVAYAGSSDVMYNAGFNIEW | – | 3
